Drawing on US20150086555A1, this text covers Trimeric HA Binding: RLU for 4 molecules.

Common to all, as to experiment: trimeric HA microarray, transfection supernatant set 4
What all share (details): remark: other sources report otherwise

In assay [1] the target is recombinant soluble homotrimeric HA of A/Netherlands/219/03 (H7N7) (Influenza A virus A/Netherlands/219/03(H7N7)).
Assay [2] has as its target recombinant soluble homotrimeric HA of A/Wisconsin/67/05 (H3N2) (Influenza A virus A/Wisconsin/67/2005(H3N2)).
Assay [3] has as its target recombinant soluble homotrimeric HA of A/Vietnam/1203/04 (H5N1) (Influenza A virus A/VietNam/1203/2004(H5N1)).
The target in assay [4] is recombinant soluble homotrimeric HA of A/Anhui/1/05 (H5N1) (Influenza A virus A/Anhui/1/2005(H5N1)).
Assay [5] has as its target recombinant soluble homotrimeric HA of A/duck/Yangzhou/02/05 (H8N4) (Influenza A virus A/duck/Yangzhou/02/2005(H8N4)).
Assay [6] deals with recombinant soluble homotrimeric HA of A/northern shoveler/California/HKWF115/07 (H6) (Influenza A virus A/northern shoveler/California/HKWF115/2007(H6N1)).
Assay [7] addresses recombinant soluble homotrimeric HA of A/California/4/09 (H1N1) (Influenza A virus A/California/04/2009(H1N1)).
For assay [8], the target named is recombinant soluble homotrimeric HA of A/Hong Kong/1073/99 (H9N2) (Influenza A virus A/Hong Kong/1073/99 (H9N2)).
The target in assay [9] is recombinant soluble homotrimeric HA of A/Egypt/3300-NAMRU3/08 (H5N1) (Influenza A virus A/Egypt/3300-NAMRU3/2008(H5N1)).
Assay [10] concerns the target recombinant soluble homotrimeric HA of A/South Carolina/1/18 (H1N1) (Influenza A virus A/South Carolina/1/18 (H1N1)).
In assay [11] the target is recombinant soluble homotrimeric HA of A/Indonesia/5/05 (H5N1) (Influenza A virus A/Indonesia/5/2005(H5N1)).
The target in assay [12] is recombinant soluble homotrimeric HA of A/swine/Ontario/01911-2/99 (H4N6) (Influenza A virus A/Swine/Ontario/01911-2/99 (H4N6)).

B1: TCN-535 (5246_P19) (antibody, V domains shown)
VH: QVQLVQSGSEVKKPGTSVKVSCTASGSVFTNYGISWVRQAPGQGLEWMGGIIPLFGAAKYAQKFQGRVTITADESTKTVYMELSRLTSKDTAIYFCAKAPRVYEYYFDQWGQGTPVTVSS
VL: EIVLTQSPGTLSLSPGERATLSCRASQSVSSSQLAWYQQKPGQAPRLIIYGASTRATGIPDRFSGSGSGTDFTLTIGRLEPEDFAVFFCQQYSTSPPTFGQGTKVDFK
Regarding B1, the Trimeric HA Binding: RLU amounted to 159 RLU in assay [1]; 4450 RLU in assay [2]; 25200 RLU in [3]; 24 RLU in assay [4]; 428 RLU in assay [5]; 18100 RLU in assay [6]. For the same molecule, the Trimeric HA Binding: RLU in assay [7] amounted to 25200 RLU; in assay [8] it was 21200 RLU; in [9], 25300 RLU; in [10] it was 22400 RLU; in assay [11] it was 18200 RLU.

B2: TCN-536 (5095_N01) (antibody, V domains shown)
VH: QVQLQQWGAGLLKPSETLSLTCAVYGGSFSVSGYYWSWIRQPPGRGLEWIGEISHGGSTNYNPSLKSRVTISVDTTKNQFSLRLSSVTAADTAVYYCARGTDPDTEVYCRVGNCAAFDYWGQGSLVTVSS
VL: EIILAQSPGTLSLSPGERATLSCRASQFVSTRSLAWYQQRPGQAPRLLIYGASSRATGIPDRFSGSGSGTDFTLTISRLEPEDFAVYYCQHYGYSPRYAFGQGSKVEIK
In the case of B2, the Trimeric HA Binding: RLU stood at 246 RLU in [1]; 20600 RLU in assay [2]; 168 RLU in [12]; 182 RLU in assay [3]; 18 RLU in [4]; 48 RLU in [5]. Besides, the Trimeric HA Binding: RLU amounted to 95 RLU in assay [6], 49 RLU in [7], 97 RLU in assay [9] and 39 RLU in assay [10].

B3: TCN-504 (3251_K17) (antibody, V domains shown)
VH: QVQLQESGPGLVKPSETLSLTCAVSGVSISNIDFYWGWIRQPPGKGLEWIGNIYYTGITFYNPSLSSRVAISIDTSKNQFSLTLTSVTAADTAMYYCARHYGDSEAINDAFDIWGQGTMLTVSS
VL: EIVMTQSPATLSVSPGERATLSCRASQSVGNSLAWYQQRPGQAPRLLIYGASTRATGIPPRFSGSGSGTEFTLTISSLQTEDFAVYYCQQYINWRPLSFGGGTKVEIK
With B3, the Trimeric HA Binding: RLU in assay [1] came out at 6710 RLU; in [2], 20600 RLU; in assay [12], 21800 RLU; in assay [3] it was 25700 RLU; in assay [4] it was 14100 RLU; in assay [5] it was 19900 RLU. The Trimeric HA Binding: RLU worked out at 549 RLU in assay [7], 24800 RLU in assay [9], 21700 RLU in [10] and 18200 RLU in assay [11].

B4: TCN-534 (5249_B02) (antibody, V domains shown)
VH: QVQLVQSGAEVKKPGSSVKVSCRESGGTFNGYTITWVRQAPGQGLEWMGGIIPMMGTVNYAQKLQGRVTITTDYFTKTAYMDLNNLRSEDTAMYYCVKIRYTGQQLLWGQGTLVTVSS
VL: DIQMTQSPSTLSASIGDRVTITCRASQSIASWLAWYQQKPGKAPKLLIYEAVNLESGVPSRFSGSGSGTDFTLTISSLQPDDFATYFCQHYGTISQTFGGGTKVEIK
For the molecule B4, the Trimeric HA Binding: RLU is 361 RLU in assay [1]; 264 RLU in assay [12]; 23700 RLU in [3]; 20 RLU in assay [4]; 79 RLU in assay [5]; 21300 RLU in [6]. Further, the Trimeric HA Binding: RLU amounted to 27000 RLU in assay [7]; 731 RLU in assay [8]; 8310 RLU in assay [9]; 11800 RLU in assay [10]; 948 RLU in assay [11].
